From the supplement of paper PMC9112550, “Optimization of the antimicrobial peptide Bac7 by deep mutational scanning” (BMC Biology, 2022)

Test system: Escherichia coli TOP10
Test: shrunken log2 fold change of peptide-encoding DNA abundance (4.5 h post-induction vs induction); higher = less antimicrobial activity (less host growth inhibition)
Details: time post-induction: 4.5 h; library: site-saturation at positions 5, 18, 19, 20
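Also: peptides expressed intracellularly from a pBAD plasmid library in pooled LB shake-flask culture, induced with 0.3% L-arabinose, DNA abundance read by NGS, three biological replicates, DESeq2 with apeglm shrinkage.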

Sequence	shrunken log2 fold change
RRIRYRPPRLPRPRPRPTGWPRP	0.088
RRIRYRPPRLPRPRPRPVPKPRP	0.0938
RRIRDRPPRLPRPRPRPEWCPRP	0.272
RRIRFRPPRLPRPRPRPGQNPRP	0.0186
RRIRCRPPRLPRPRPRPSFHPRP	-0.841
RRIRFRPPRLPRPRPRPPTGPRP	0.217
RRIRARPPRLPRPRPRPSMQPRP	0.352
RRIRIRPPRLPRPRPRPIHCPRP	-0.00133
RRIRFRPPRLPRPRPRPTDSPRP	-0.0233
RRIRMRPPRLPRPRPRPFKWPRP	-0.0704
RRIRPRPPRLPRPRPRPCNPPRP	-0.0662
RRIRYRPPRLPRPRPRPFYIPRP	-1.26
RRIRLRPPRLPRPRPRPDWIPRP	-0.0697
RRIRFRPPRLPRPRPRPLDLPRP	-0.366
RRIRQRPPRLPRPRPRPVKTPRP	0.139
RRIRRRPPRLPRPRPRPMCKPRP	0.141
RRIRDRPPRLPRPRPRPMHQPRP	0.126
RRIRRRPPRLPRPRPRPPAKPRP	1.35
RRIRGRPPRLPRPRPRPARIPRP	0.208
RRIRIRPPRLPRPRPRPMQHPRP	-0.289
RRIRSRPPRLPRPRPRPEKEPRP	0.00748
RRIRMRPPRLPRPRPRPCWWPRP	0.0436
RRIRLRPPRLPRPRPRPWLDPRP	-0.233
RRIRWRPPRLPRPRPRPLRNPRP	0.847
RRIRIRPPRLPRPRPRPHQIPRP	-0.423

Sequence	shrunken log2 fold change
RRIRRRPPRLPRPRPRPAISPRP	-0.0296
RRIRERPPRLPRPRPRPWPTPRP	0.549
RRIRLRPPRLPRPRPRPRFGPRP	0.145
RRIRFRPPRLPRPRPRPAGTPRP	-0.0142
RRIRFRPPRLPRPRPRPYFIPRP	-1.12
RRIRWRPPRLPRPRPRPKCDPRP	0.033
RRIRRRPPRLPRPRPRPCQKPRP	0.0185
RRIRNRPPRLPRPRPRPQDTPRP	-0.0984
RRIRTRPPRLPRPRPRPASMPRP	-0.212
RRIRTRPPRLPRPRPRPTPLPRP	0.147
RRIRYRPPRLPRPRPRPTDGPRP	-0.0848
RRIRYRPPRLPRPRPRPPGKPRP	0.157
RRIRQRPPRLPRPRPRPVVDPRP	-0.355
RRIRKRPPRLPRPRPRPRKCPRP	0.0121
RRIRDRPPRLPRPRPRPKDGPRP	-0.0429
RRIRHRPPRLPRPRPRPGTPPRP	0.104
RRIRDRPPRLPRPRPRPKVLPRP	-0.041
RRIRKRPPRLPRPRPRPMGNPRP	0.111
RRIRVRPPRLPRPRPRPVYAPRP	-0.00846
RRIRKRPPRLPRPRPRPVIWPRP	0.153
RRIRTRPPRLPRPRPRPPMWPRP	0.0903
RRIRMRPPRLPRPRPRPEHKPRP	2.5
RRIRYRPPRLPRPRPRPEGLPRP	-0.0136
RRIRTRPPRLPRPRPRPEADPRP	0.0868
RRIRKRPPRLPRPRPRPPTGPRP	0.265

Sequence	shrunken log2 fold change
RRIRIRPPRLPRPRPRPMQWPRP	-0.192
RRIRRRPPRLPRPRPRPEERPRP	0.34
RRIRKRPPRLPRPRPRPPVWPRP	0.448
RRIRIRPPRLPRPRPRPWANPRP	-0.0688
RRIRRRPPRLPRPRPRPRLNPRP	0.522
RRIRSRPPRLPRPRPRPMVFPRP	0.104
RRIRVRPPRLPRPRPRPLDWPRP	0.188
RRIRWRPPRLPRPRPRPSCRPRP	0.0511
RRIRARPPRLPRPRPRPWAYPRP	-0.0297
RRIRPRPPRLPRPRPRPRDPPRP	0.695
RRIRQRPPRLPRPRPRPRAMPRP	0.0219
RRIRHRPPRLPRPRPRPYFTPRP	-0.679
RRIRPRPPRLPRPRPRPWNPPRP	-0.496
RRIRKRPPRLPRPRPRPLCFPRP	0.188
RRIRHRPPRLPRPRPRPFVCPRP	-0.453
RRIRGRPPRLPRPRPRPRSFPRP	-0.0397
RRIRYRPPRLPRPRPRPSVRPRP	-0.301
RRIRWRPPRLPRPRPRPAMCPRP	0.0884
RRIRNRPPRLPRPRPRPWQRPRP	-0.0153
RRIRSRPPRLPRPRPRPMKRPRP	-0.115
RRIRSRPPRLPRPRPRPPAEPRP	2.3
RRIRWRPPRLPRPRPRPMLGPRP	0.464
RRIRYRPPRLPRPRPRPARMPRP	-0.0508
RRIRARPPRLPRPRPRPRRHPRP	1.65
RRIRSRPPRLPRPRPRPKLIPRP	-0.257

Sequence	shrunken log2 fold change
RRIRDRPPRLPRPRPRPKREPRP	-0.024
RRIRARPPRLPRPRPRPSNGPRP	-0.318
RRIRMRPPRLPRPRPRPNPYPRP	-0.0714
RRIRNRPPRLPRPRPRPLAMPRP	-0.21
RRIRVRPPRLPRPRPRPSWTPRP	-0.0613
RRIRCRPPRLPRPRPRPMGFPRP	-0.103
RRIRKRPPRLPRPRPRPGKWPRP	0.184
RRIRHRPPRLPRPRPRPYRWPRP	-0.00879
RRIRVRPPRLPRPRPRPCHWPRP	0.169
RRIRCRPPRLPRPRPRPIMMPRP	-0.211
RRIRHRPPRLPRPRPRPPAFPRP	0.0237
RRIRERPPRLPRPRPRPSNHPRP	-0.91
RRIRQRPPRLPRPRPRPSQNPRP	-0.383
RRIRMRPPRLPRPRPRPVMSPRP	0.134
RRIRHRPPRLPRPRPRPMPWPRP	-0.032
RRIRGRPPRLPRPRPRPRTYPRP	0.0193
RRIRARPPRLPRPRPRPGFFPRP	0.509
RRIRQRPPRLPRPRPRPWSQPRP	0.0535
RRIRNRPPRLPRPRPRPWQHPRP	0.178
RRIRDRPPRLPRPRPRPKMVPRP	0.223
RRIRRRPPRLPRPRPRPAKGPRP	-0.0594
RRIRNRPPRLPRPRPRPNCHPRP	0.0111
RRIRQRPPRLPRPRPRPWPRPRP	0.014
RRIRLRPPRLPRPRPRPAIPPRP	-0.0222
RRIRVRPPRLPRPRPRPKYTPRP	-0.421

Sequence	shrunken log2 fold change
RRIRYRPPRLPRPRPRPCARPRP	-0.0708
RRIRCRPPRLPRPRPRPHGHPRP	-0.167
RRIRHRPPRLPRPRPRPVRGPRP	0.328
RRIRLRPPRLPRPRPRPPYPPRP	-0.0316
RRIRQRPPRLPRPRPRPHWWPRP	0.38
RRIRLRPPRLPRPRPRPFLCPRP	-0.353
RRIRVRPPRLPRPRPRPDLKPRP	0.00797
RRIRERPPRLPRPRPRPRGQPRP	0.837
RRIRERPPRLPRPRPRPQFAPRP	-0.148
RRIRFRPPRLPRPRPRPTCVPRP	-0.0732
RRIRQRPPRLPRPRPRPTNMPRP	-0.521
RRIRIRPPRLPRPRPRPEAAPRP	0.538
RRIRRRPPRLPRPRPRPRSCPRP	0.182
RRIRARPPRLPRPRPRPRSCPRP	0.306
RRIRGRPPRLPRPRPRPFCVPRP	0.392
RRIRYRPPRLPRPRPRPLRYPRP	-0.426
RRIRERPPRLPRPRPRPIDKPRP	-0.321
RRIRTRPPRLPRPRPRPVTIPRP	-0.0419
RRIRCRPPRLPRPRPRPRSDPRP	-0.101
RRIRFRPPRLPRPRPRPNGQPRP	-0.0712
RRIRVRPPRLPRPRPRPGGRPRP	0.317
RRIRSRPPRLPRPRPRPDCVPRP	-0.0759
RRIRYRPPRLPRPRPRPPQVPRP	-0.0496
RRIRVRPPRLPRPRPRPYGTPRP	-0.13
RRIRNRPPRLPRPRPRPWCSPRP	-0.535

Sequence	shrunken log2 fold change
RRIRGRPPRLPRPRPRPMVYPRP	0.438
RRIRLRPPRLPRPRPRPPNYPRP	-0.23
RRIRCRPPRLPRPRPRPIWGPRP	0.25
RRIRPRPPRLPRPRPRPSPEPRP	-0.0109
RRIRRRPPRLPRPRPRPELEPRP	1.16
RRIRCRPPRLPRPRPRPMVHPRP	-0.452
RRIRKRPPRLPRPRPRPLLAPRP	0.833
RRIRGRPPRLPRPRPRPQSRPRP	0.328
RRIRERPPRLPRPRPRPAQDPRP	0.00521
RRIRFRPPRLPRPRPRPDTRPRP	-0.324
RRIRPRPPRLPRPRPRPIHWPRP	0.225
RRIRDRPPRLPRPRPRPKKFPRP	0.117
RRIRIRPPRLPRPRPRPMYLPRP	-0.249
RRIRARPPRLPRPRPRPEAIPRP	0.839
RRIRARPPRLPRPRPRPNEEPRP	0.276
RRIRHRPPRLPRPRPRPVSMPRP	-0.0784
RRIRTRPPRLPRPRPRPRAGPRP	0.41
RRIRLRPPRLPRPRPRPDPAPRP	0.752
RRIRNRPPRLPRPRPRPKPLPRP	-0.102
RRIRHRPPRLPRPRPRPPWAPRP	0.226
RRIRFRPPRLPRPRPRPQCCPRP	-0.067
RRIRHRPPRLPRPRPRPSDTPRP	-1.05
RRIRNRPPRLPRPRPRPPIAPRP	-0.312
RRIRDRPPRLPRPRPRPYIPPRP	-0.456
RRIRKRPPRLPRPRPRPPNEPRP	1.68
